Laboratory results from publication PMC3601965, “Conformational Change-Induced Repeat Domain Expansion Regulates Rap Phosphatase Quorum-Sensing Signal Receptors” (PLoS Biology, 2013).

Key:
RapJ = biological target: T1, RapJ (B. subtilis strain 168, UniProt O34327 1-373); experiment: SEC + other: MALDI-TOF and MALDI-TOF/TOF mass spectrometry; 8.5 mM PhrC mixed with 425 µM RapJ (wild type or R105A,Y161F), Superdex 200 16/70 in 20 mM Tris-HCl pH 8.0, 50 mM KCl, 5 mM MgCl2, 5 mM DTT; peak fractions analysed for PhrC (m/z 593.27); PhrC alone as control; conditions: both partners purified
T1 construct: RapJ, Bacillus subtilis strain 168, amplified from genomic DNA; no heterologous residues after removal of His-Sumo; Phases came from selenomethionyl RapJ crystals; In the functional rows the in vivo RapJ was expressed in B. subtilis VP068 from pDRJ1 (IS75 DNA); also called response regulator aspartate phosphatase J; wild-type RapJ; source: E. coli BL21(DE3), purified (His-60 Ni resin, SUMO …)
T1 sequence (looked up): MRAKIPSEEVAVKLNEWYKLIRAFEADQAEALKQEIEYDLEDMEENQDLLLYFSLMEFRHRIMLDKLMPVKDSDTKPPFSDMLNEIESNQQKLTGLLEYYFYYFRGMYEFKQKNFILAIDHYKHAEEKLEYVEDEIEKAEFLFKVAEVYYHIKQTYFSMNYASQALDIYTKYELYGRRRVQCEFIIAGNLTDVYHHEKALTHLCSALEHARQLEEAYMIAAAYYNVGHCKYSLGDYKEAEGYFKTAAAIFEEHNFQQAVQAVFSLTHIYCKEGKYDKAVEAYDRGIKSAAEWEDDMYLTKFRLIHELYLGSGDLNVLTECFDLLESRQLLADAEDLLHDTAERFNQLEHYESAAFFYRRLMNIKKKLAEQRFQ

RapJ-R105A,Y161F = biological target: T2, RapJ-R105A,Y161F (B. subtilis, UniProt O34327 1-373, R105A | Y161F); experiment: as above; conditions: both partners purified
T2 construct: RapJ, Bacillus subtilis, double mutant R105A,Y161F; same construct limits as wild-type RapJ; source: overexpressed and purified as for X-ray crystallography (E. coli; after the SourceQ step dialysed against buffer H); not shown: His, N-terminal, cleaved; SUMO, N-terminal, cleaved
T2 sequence (looked up): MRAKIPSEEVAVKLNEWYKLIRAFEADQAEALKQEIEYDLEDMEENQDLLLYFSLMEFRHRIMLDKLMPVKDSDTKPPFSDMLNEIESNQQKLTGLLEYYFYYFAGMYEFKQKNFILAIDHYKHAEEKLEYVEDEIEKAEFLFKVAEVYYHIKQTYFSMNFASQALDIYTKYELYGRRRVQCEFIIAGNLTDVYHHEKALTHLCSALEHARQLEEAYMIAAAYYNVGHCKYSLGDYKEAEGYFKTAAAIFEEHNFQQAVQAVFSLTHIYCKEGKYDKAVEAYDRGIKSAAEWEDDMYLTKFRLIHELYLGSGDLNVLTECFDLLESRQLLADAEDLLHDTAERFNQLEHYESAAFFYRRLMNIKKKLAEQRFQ

B1: PhrC (peptide)
peptide: ERGMT
notes: mature PhrC pentapeptide (NH2-ERGMT-COOH), cut from the C-terminus of pro-PhrC, Bacillus subtilis; also called CSF; source: synthetic peptide, bought: LifeTein, 95% purity
B1: binds (RapJ); binds (RapJ-R105A,Y161F).
